For experiment [1], the target named is T1, human RANKL (human, UniProt O14788 158-317, limits assumed).
T1 sequence: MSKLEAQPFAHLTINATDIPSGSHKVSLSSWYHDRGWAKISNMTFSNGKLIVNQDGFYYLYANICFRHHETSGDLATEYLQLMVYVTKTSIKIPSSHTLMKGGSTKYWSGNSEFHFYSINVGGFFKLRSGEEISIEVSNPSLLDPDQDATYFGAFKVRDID
The experiment in a line: cell-based or functional assay.

Experiment [2] addresses T2, rat RANKL (rat, UniProt Q9ESE2 141-318, limits assumed).
T2 construct: Construct not described
T2 sequence (looked up): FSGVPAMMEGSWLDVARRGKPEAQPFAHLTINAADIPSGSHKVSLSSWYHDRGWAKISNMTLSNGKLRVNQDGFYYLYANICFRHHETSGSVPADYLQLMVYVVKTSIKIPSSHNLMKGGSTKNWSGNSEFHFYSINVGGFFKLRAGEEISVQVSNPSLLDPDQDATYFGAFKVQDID
The experiment in a line: SPR (BIAcore 2000), antibody captured on Protein A, RANKL as analyte, 25 C; rat RANKL. On the technique in general: In SPR one partner is held on a chip, and binding of the other changes the refractive index at the surface.

For experiment [3], the target named is T1, human RANKL. The experiment in a line: SPR (BIAcore 2000), antibody captured on Protein A, RANKL as analyte, 25 C; human RANKL. How it is done: The BIAcore® 2000 instrument is used to measure binding affinity. All measurements are performed at 25° C. 2 ug/mL of exemplified antibody of Example 1 is dissolved in HBS-EP buffer (150 mM sodium chloride, 3 mM EDTA, 0.005% (w/v) surfactant P-20, and 10 mM HEPES, pH7.4). Protein A is immobilized on flow cells 1 to 4 of a CM4 sensor chip at a level of 500 response units (Rus) using an amine coupling kit.
Binding is evaluated using multiple analytical cycles. Each cycle is performed at a flow rate of 20 uL/minute. About 10 uL of the exemplified antibody of Example 1, at a concentration of 2 ug/mL, is injected, aiming to capture about 100-200Rus; 250 uL of human RANKL (starting at 5 nM and using two-fold serial dilutions for each cycle) is injected, ten minutes is given for dissociation, and 10 uL of 10 mM glycine hydrochloride, pH 1.5 is used for regeneration. Association and dissociation rates for each cycle are evaluated using a “1:1 with mass transfer” binding model in the BIAevaluation software.

Experiment [4] concerns the target T3, mouse RANKL (mouse, UniProt O35235 158-316, limits assumed).
T3 construct: Construct not described; also called murine RANKL
T3 sequence (looked up): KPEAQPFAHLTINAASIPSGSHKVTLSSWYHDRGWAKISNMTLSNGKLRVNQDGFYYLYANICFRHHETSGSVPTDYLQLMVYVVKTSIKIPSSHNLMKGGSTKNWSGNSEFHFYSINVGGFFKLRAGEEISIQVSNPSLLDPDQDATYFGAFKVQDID
The experiment in a line: SPR (BIAcore 2000), antibody captured on Protein A, RANKL as analyte, 25 C; mouse RANKL.

B1: exemplified antibody of Example 1 (antibody, human IgG4 S228P, kappa, F234A L235A, V domains shown)
VH: QVQLVQSGAEVKKPGSSVKVSCKASGYAFTNYYIEWVRQAPGQGLEWMGVINPGWGDTNYNEKFKGRVTITADKSTSTAYMELSSLRSEDTAVYYCARRDTAHGYYALDPWGQGTTVTVSS
VL: DIQMTQSPSSLSASVGDRVTITCKASQNVGTNVAWYQQKPGKAPKLLIYSASYRYSGVPSRFSGSGSGTDFTLTISSLQPEDFATYYCQQYWDYPLTFGGGTKVEIKR
notes: also called the antibody; anti-RANKL antibody
Turning to B1, the “IC50, neutralization of human RANKL induced NF-kB driven luciferase luminescence in HEK293 cells expressing human RANK” value in experiment [1] stood at 0.069 nM. Besides, the Kd (commonly the equilibrium constant for the complex coming apart) came out at 0.0344 nM in experiment [2], 0.00282 nM in experiment [3] and 0.00664 nM in experiment [4].
